As a reminder, the Kd is the constant that tells how readily two partners part at equilibrium. Read a low Kd as tighter binding.

From publication PMC8517284 (EBioMedicine, 2021) come the findings set out here.

The test addresses human integrin αvβ3 (R&D Systems, 3050-AV-050) (human, UniProt P06756 31-1048; P05106 27-718). Put plainly: SPR. (In general: SPR reads the build-up and loss of mass on a sensor chip optically.)

B1: GFP-tagged full-length recombinant human D3 (1-304 aa), D3^FL (enzyme)
chain: MPRQATSRLVVGEGEGSQGASGPAATMLRSLLLHSLRLCAQTASCLVLFPRFLGTAFMLWLLDFLCIRKHFLGRRRRGQPEPEVELNSEGEEVPPDDPPICVSDDNRLCTLASLKAVWHGQKLDFFKQAHEGGPAPNSEVVLPDGFQSQHILDYAQGNRPLVLNFGSCTCPPFMARMSAFQRLVTKYQRDVDFLIIYIEEAHPSDGWVTTDSPYIIPQHRSLEDRVSAARVLQQGAPGCALVLDTMANSSSSAYGAYFERLYVIQSGTIMYQGGRGPDGYQVSELRTWLERYDEQLHGARPRRV
As for B1, binding was put at a Kd of 2.11 µM.
